# B1: Dolichol-phosphate mannosyltransferase subunit 1 (Homo sapiens), O60762 (parent)
# chain: MASLEVSRSPRRSRRELEVRSPRQNKYSVLLPTYNERENLPLIVWLLVKSFSESGINYEIIIIDDGSPDGTRDVAEQLEKIYGSDRILLRPREKKLGLGTAYIHGMKHATGNYIIIMDADLSHHPKFIPEFIRKQKEGNFDIVSGTRYKGNGGVYGWDLKRKIISRGANFLTQILLRPGASDLTGSFRLYRKEVLEKLIEKCVSKGYVFQMEMIVRARQLNYTIGEVPISFVDRVYGESKLGGNEIVSFLKGLLTLFATT
# B2: Ubiquitin-protein ligase (Homo sapiens), Q05086 (parent)
# chain: MEKLHQCYWKSGEPQSDDIEASRMKRAAAKHLIERYYHQLTEGCGNEACTNEFCASCPTFLRMDNNAAAIKALELYKINAKLCDPHPSKKGASSAYLENSKGAPNNSCSEIKMNKKGARIDFKDVTYLTEEKVYEILELCREREDYSPLIRVIGRVFSSAEALVQSFRKVKQHTKEELKSLQAKDEDKDEDEKEKAACSAAAMEEDSEASSSRIGDSSQGDNNLQKLGPDDVSVDIDAIRRVYTRLLSNEKIETAFLNALVYLSPNVECDLTYHNVYSRDPNYLNLFIIVMENRNLHSPEYLEMALPLFCKAMSKLPLAAQGKLIRLWSKYNADQIRRMMETFQQLITYKVISNEFNSRNLVNDDDAIVAASKCLKMVYYANVVGGEVDTNHNEEDDEEPIPESSELTLQELLGEERRNKKGPRVDPLETELGVKTLDCRKPLIPFEEFINEPLNEVLEMDKDYTFFKVETENKFSFMTCPFILNAVTKNLGLYYDNRIRMYSERRITVLYSLVQGQQLNPYLRLKVRRDHIIDDALVRLEMIAMENPADLKKQLYVEFEGEQGVDEGGVSKEFFQLVVEEIFNPDIGMFTYDESTKLFWFNPSSFETEGQFTLIGIVLGLAIYNNCILDVHFPMVVYRKLMGKKGTFRDLGDSHPVLYQSLKDLLEYEGNVEDDMMITFQISQTDLFGNPMMYDLKENGDKIPITNENRKEFVNLYSDYILNKSVEKQFKAFRRGFHMVTNESPLKYLFRPEEIELLICGSRNLDFQALEETTEYDGGYTRDSVLIREFWEIVHSFTDEQKRLFLQFTTGTDRAPVGGLGKLKMIIAKNGPDTERLPTSHTCFNVLLLPEYSSKEKLKERLLKAITYAKGFGML
# partner: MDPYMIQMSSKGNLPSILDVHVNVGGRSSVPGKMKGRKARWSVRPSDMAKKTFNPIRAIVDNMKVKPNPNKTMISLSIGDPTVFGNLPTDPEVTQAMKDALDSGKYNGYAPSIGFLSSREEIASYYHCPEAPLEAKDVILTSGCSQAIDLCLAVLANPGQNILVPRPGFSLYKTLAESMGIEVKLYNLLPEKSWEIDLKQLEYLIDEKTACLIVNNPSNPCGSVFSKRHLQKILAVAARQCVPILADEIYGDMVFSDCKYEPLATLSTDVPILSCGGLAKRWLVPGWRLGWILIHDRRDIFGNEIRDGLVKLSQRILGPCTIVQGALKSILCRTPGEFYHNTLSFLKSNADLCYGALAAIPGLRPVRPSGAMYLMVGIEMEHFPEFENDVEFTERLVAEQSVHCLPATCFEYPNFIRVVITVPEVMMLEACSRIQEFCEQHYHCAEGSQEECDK
# B3: Mothers against decapentaplegic homolog 3 (Homo sapiens), P84022 (parent)
# chain: MSSILPFTPPIVKRLLGWKKGEQNGQEEKWCEKAVKSLVKKLKKTGQLDELEKAITTQNVNTKCITIPRSLDGRLQVSHRKGLPHVIYCRLWRWPDLHSHHELRAMELCEFAFNMKKDEVCVNPYHYQRVETPVLPPVLVPRHTEIPAEFPPLDDYSHSIPENTNFPAGIEPQSNIPETPPPGYLSEDGETSDHQMNHSMDAGSPNLSPNPMSPAHNNLDLQPVTYCEPAFWCSISYYELNQRVGETFHASQPSMTVDGFTDPSNSERFCLGLLSNVNRNAAVELTRRHIGRGVRLYYIGGEVFAECLSDSAIFVQSPNCNQRYGWHPATVCKIPPGCNLKIFNNQEFAALLAQSVNQGFEAVYQLTRMCTIRMSFVKGWGAEYRRQTVTSTPCWIELHLNGPLQWLDKVLTQMGSPSIRCSSVS
# partner: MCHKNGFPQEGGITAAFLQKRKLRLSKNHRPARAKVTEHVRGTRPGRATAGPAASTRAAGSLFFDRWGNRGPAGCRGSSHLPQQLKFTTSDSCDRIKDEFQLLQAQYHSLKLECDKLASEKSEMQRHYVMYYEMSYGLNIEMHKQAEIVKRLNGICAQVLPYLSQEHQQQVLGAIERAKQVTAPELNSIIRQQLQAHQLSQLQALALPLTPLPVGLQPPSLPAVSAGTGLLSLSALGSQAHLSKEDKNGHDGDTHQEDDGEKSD
# B4: Zinc finger protein 41 (Homo sapiens), P51814-6 (parent)
# chain: MAANGDSPPWSPALAAEGRGSSCEASVSFEDVTVDFSKEEWQHLDPAQRRLYWDVTLENYSHLLSVGYQIPKSEAAFKLEQGEGPWMLEGEAPHQSCSGEAIGKMQQQGIPGGIFFHCERFDQPIGEDSLCSILEELWQDNDQLEQRQENQNNLLSHVKVLIKERGYEHKNIEKIIHVTTKLVPSIKRLHNCDTILKHTLNSHNHNRNSATKNLGKIFGNGNNFPHSPSSTKNENAKTGANSCEHDHYEKHLSHKQAPTHHQKIHPEEKLYVCTECVMGFTQKSHLFEHQRIHAGEKSRECDKSNKVFPQKPQVDVHPSVYTGEKPYLCTQCGKVFTLKSNLITHQKIHTGQKPYKCSECGKAFFQRSDLFRHLRIHTGEKPYECSECGKGFSQNSDLSIHQKTHTGEKHYECNECGKAFTRKSALRMHQRIHTGEKPYVCADCGKAFIQKSHFNTHQRIHTGEKPYECSDCGKSFTKKSQLHVHQRIHTGEKPYICTECGKVFTHRTNLTTHQKTHTGEKPYMCAECGKAFTDQSNLIKHQKTHTGEKPYKCNGCGKAFIWKSRLKIHQKSHIGERHYECKDCGKAFIQKSTLSVHQRIHTGEKPYVCPECGKAFIQKSHFIAHHRIHTGEKPYECSDCGKCFTKKSQLRVHQKIHTGEKPNICAECGKAFTDRSNLITHQKIHTREKPYECGDCGKTFTWKSRLNIHQKSHTGERHYECSKCGKAFIQKATLSMHQIIHTGKKPYACTECQKAFTDRSNLIKHQKMHSGEKRYKASD
# B5: Polyunsaturated fatty acid 5-lipoxygenase (Homo sapiens), P09917 (parent)
# chain: MPSYTVTVATGSQWFAGTDDYIYLSLVGSAGCSEKHLLDKPFYNDFERGAVDSYDVTVDEELGEIQLVRIEKRKYWLNDDWYLKYITLKTPHGDYIEFPCYRWITGDVEVVLRDGRAKLARDDQIHILKQHRRKELETRQKQYRWMEWNPGFPLSIDAKCHKDLPRDIQFDSEKGVDFVLNYSKAMENLFINRFMHMFQSSWNDFADFEKIFVKISNTISERVMNHWQEDLMFGYQFLNGCNPVLIRRCTELPEKLPVTTEMVECSLERQLSLEQEVQQGNIFIVDFELLDGIDANKTDPCTLQFLAAPICLLYKNLANKIVPIAIQLNQIPGDENPIFLPSDAKYDWLLAKIWVRSSDFHVHQTITHLLRTHLVSEVFGIAMYRQLPAVHPIFKLLVAHVRFTIAINTKAREQLICECGLFDKANATGGGGHVQMVQRAMKDLTYASLCFPEAIKARGMESKEDIPYYFYRDDGLLVWEAIRTFTAEVVDIYYEGDQVVEEDPELQDFVNDVYVYGMRGRKSSGFPKSVKSREQLSEYLTVVIFTASAQHAAVNFGQYDWCSWIPNAPPTMRAPPPTAKGVVTIEQIVDTLPDRGRSCWHLGAVWALSQFQENELFLGMYPEEHFIEKPVKEAMARFRKNLEAIVSVIAERNKKKQLPYYYLSPDRIPNSVAI
# partner: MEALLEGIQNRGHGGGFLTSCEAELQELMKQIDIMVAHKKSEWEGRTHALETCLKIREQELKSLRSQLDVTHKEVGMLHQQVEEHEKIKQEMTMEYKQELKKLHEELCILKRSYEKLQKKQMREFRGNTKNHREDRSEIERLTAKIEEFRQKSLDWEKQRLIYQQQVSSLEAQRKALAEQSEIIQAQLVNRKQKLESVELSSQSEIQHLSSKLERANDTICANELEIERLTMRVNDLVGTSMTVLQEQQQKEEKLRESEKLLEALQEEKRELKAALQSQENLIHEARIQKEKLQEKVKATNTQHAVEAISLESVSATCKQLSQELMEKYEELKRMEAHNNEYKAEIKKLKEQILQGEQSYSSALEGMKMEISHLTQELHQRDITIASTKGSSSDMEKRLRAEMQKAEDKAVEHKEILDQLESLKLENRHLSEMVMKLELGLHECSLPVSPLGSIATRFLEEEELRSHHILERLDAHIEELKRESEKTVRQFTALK
# Variants of: B1
# Conditions: with t23o_human TDO2, P48775
# Chain of t23o_human TDO2, P48775 (P48775 whole entry, looked up): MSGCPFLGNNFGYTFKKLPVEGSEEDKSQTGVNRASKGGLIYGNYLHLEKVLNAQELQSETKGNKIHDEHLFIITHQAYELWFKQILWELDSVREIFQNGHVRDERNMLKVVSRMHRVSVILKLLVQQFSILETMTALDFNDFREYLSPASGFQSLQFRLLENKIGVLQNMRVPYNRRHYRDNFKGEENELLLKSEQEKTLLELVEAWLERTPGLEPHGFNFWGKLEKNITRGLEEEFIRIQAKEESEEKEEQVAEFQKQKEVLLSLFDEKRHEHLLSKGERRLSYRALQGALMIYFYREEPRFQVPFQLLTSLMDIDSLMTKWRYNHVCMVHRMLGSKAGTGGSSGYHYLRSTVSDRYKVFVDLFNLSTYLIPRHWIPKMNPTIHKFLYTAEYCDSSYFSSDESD
row,Variant,effect of a mutation on the interaction
1,R92G,with no effect
2,S248P,with no effect

# Variants of: B2
# Conditions: with atty_human TAT
row,Variant,effect of a mutation on the interaction
1,R529C,disrupting interaction strength
2,I827K,disrupting interaction strength
3,S372P,disrupting interaction strength

# Variants of: B3
# Conditions: with TLE5, Q08117-2
row,Variant,effect of a mutation on the interaction
1,N197I,with no effect
2,I170V,with no effect

# Variants of: B4
# Conditions: with fam9b_human FAM9B
row,Variant,effect of a mutation on the interaction
1,C301R,with no effect
2,P111L,disrupting interaction strength
3,I125R,with no effect

# Variants of: B5
# Conditions: with CEP63, Q96MT8-3
row,Variant,effect of a mutation on the interaction
1,E254K,with no effect
